Numbering of substitutions follows the chain as printed.

From patent publication US12509503B2, “Pan-neuraminidase inhibiting antibodies” (Washington University, priority 2019, dated 2025) come the findings set out here.

Experiment [1] has as its system virus expressing a group 1 neuraminidase (N4). More on the design: species or system mice. The note with it: mouse, in vivo.
For experiment [2], the system named is influenza A group 1 and group 2 NAs. Kind of experiment: Enzyme-linked lectin assay (ELLA) neuraminidase inhibition, influenza A NAs. It is filed as biochemical, influenza A virus. The note with it: for neuraminidase inhibition (NI) in ELLA: fetuin substrate, subtypes inhibited are named in the value. As for the experimental part: Ninety six-well microtiter plates (Thermo Fisher) were coated with 100 μL/well fetuin (Sigma) at a concentration of 25 μg/mL in 1× coating buffer (KPL coating solution; SeraCare) at 4° C. overnight. The next day, the plates were washed three times with T-PBS and blocked in 200 μL blocking buffer (5% bovine serum albumin (BSA, Biomedicals) in PBS) at room temperature. On a separate 96-well plate virus was serially diluted 1:2 in PBS. Seventy-five μL of PBS was added to all wells and the plates incubated for 1.5 h on a shaker at room temperature. After blocking, the plates were washed three times with T-PBS, 100 μL of serially diluted virus was transferred well by well to the fetuin coated plates and the plates were incubated for 2 hours at 33° C. or 37° C. depending on the virus type. The plates were washed four times and 100 μL peanut agglutinin (PNA) conjugated to HRP at a concentration of 5 μg/mL was added to all wells. The plates were incubated in the dark for two hours, the plates washed four times and developed with 100 μL SigmaFast OPD. The reaction was stopped after 5 min with 50 μL 3M hydrochloric acid (Thermo Fisher) and the plates were read at a wavelength of 490 nm with a microtiter plate reader (Bio-Tek). The data were analyzed in Microsoft Excel and GraphPad Prism 7, and the 50% effective concentration (EC50) was calculated for each virus.
To perform neuraminidase inhibition assays, the microtiter plates were coated and blocked as described above. During the blocking of the fetuin coated plates the mAbs were diluted to a starting concentration of 30 μg/mL and serially diluted 1:2 in PBS in a separate 96-well plate. Seventy-five μL of virus diluted to 2× effective concentration 50 (EC50) was added to wells of the serially diluted mAbs and incubated for 1.5 h on a shaker. The fetuin coated plates were washed three times with T-PBS and the virus/mAb mixture was added to the plates and incubated for 2 hours at 33° C. or 37° C. The remainder of the assay was performed as described above. The data were analyzed in Microsoft Excel and GraphPad Prism 7, and the inhibitory concentration 50 (IC50) was calculated.

Experiment [3] deals with recombinant NA, group 1 NAs (N1, N4, N5 and N8) and group 2 NAs (N2, N3, N6, N7 and N9). It is filed as binding, influenza A virus.
Experiment [4] has as its system challenge viruses expressing N1, N2, N3, N5, N6, N7, N8, N9 NAs and influenza B virus NA. More on the design: species or system mice. The note with it: mouse, in vivo.
The subject of experiment [5] is recombinant N2 NA. It is filed as binding, influenza A virus.

B1: 1G01: human anti-NA monoclonal antibody expressed as IgG1; heavy chain variable region SEQ ID NO: 44, light chain variable region SEQ ID NO: 45 (antibody, listed as Homo sapiens, V domains shown)
VH: EVQLVESGGRALRPGGSLRLSCAASGFKFDDYAMSWVRQVPGKGLEFVSGLNWNGDITAYTDSVKGRFTVSRDNAKNSLYLHINSPKPEDTALYYCARTSSWGDYTRGPEPKITWYFDLWGRGTLVTVSS
VL: DIQLTQSPSFLSASVGDRITITCRASQGIDGYLAWYQQRPGKAPNLLIYAASLLQSGVPSRFSGSGYGTEFTLTISSLQPEDFATYYCQHLDSYPLFTFGPGTKVDIK
modifications: IgG1 constant regions
With B1, the weight loss result in experiment [1] is given as “some transient weight loss”. For the same molecule, in experiment [2], the “neuraminidase inhibition (NI) in ELLA” value is “inhibited the activity of all A/group 2 and group 1 NAs”. Moreover, in experiment [3], the “binding / cross-reactivity to recombinant influenza A NA subtypes in ELISA” value (shortened to “binding / cross-reactivity”) is “broadest binding activity that covered all group 1 NAs (N1, N4, N5 and N8) and group 2 NAs (N2, N3, N6, N7 and N9)”. Besides, in experiment [4], the “protection against weight loss” value is “solid protection against weight loss” and the protection from lethality entry is listed as “full protection from lethality”. The “binding to N2 NA” value in experiment [5] was “bound”.

B2: 1G01 Fab: antigen-binding fragment (Fab) of 1G01 used instead of the full antibody (antibody)
heavy: B1 VH
light: B1 VL
modifications: left off: a dimerising Fc or GST
For the molecule B2, in experiment [2] (H3N2 strain A/Hong Kong/4801/2014), the “NA inhibition in ELLA” value was “potent inhibition”.

B3: 1G04: human anti-NA monoclonal antibody expressed as IgG1; heavy chain variable region SEQ ID NO: 40, light chain variable region SEQ ID NO: 41 (antibody, listed as Homo sapiens, V domains shown)
VH: EVQLVESGGRVVRPGGSLRLSCAASGFTFDDYGMSWVRQAPGKGLEFVSGLNWNGDITAFTDSVKGRFTISRDNAKSSLYLQMNSLRADDTAFYYCARVRTWGEYTTREEPIHSWYFDLWGRGTLVTVSS
VL: DIQLTQSPSFLSASVGDRVTITCRASQDISSFLAWYQQKPGNAPKVLIYAASLLQSGVPSRFSGSGSGTDFTLTISSLQPEDFATYYCQQLNSYPLFTFGPGTKVDIK
modifications: IgG1 constant regions
Regarding B3, the “neuraminidase inhibition (NI) in ELLA” value in experiment [2] is “inhibited N2, N3 and certain N1 NAs”. Also, the “binding / cross-reactivity” value in experiment [3] was “some cross-reactivity to N3 and N6 (group 2), and N1, N5 and N8 (group 1)”. For the same molecule, the “binding to N2 NA” value in experiment [5] was “bound”.

B4: 1E01: human anti-NA monoclonal antibody expressed as IgG1; heavy chain variable region SEQ ID NO: 42, light chain variable region SEQ ID NO: 43 (antibody, listed as Homo sapiens, V domains shown)
VH: B3 VH with A40P, A75V, E104D, R108G, P111I, H113N
VL: B3 VL with F32Y, V46L, G64A, S65F, D70E, Q90H, N92K
modifications: IgG1 constant regions
Regarding B4, the “neuraminidase inhibition (NI) in ELLA” value in experiment [2] is given as “inhibited group 2 NAs, N1”. In experiment [3], the “binding / cross-reactivity” value was “even broader binding pattern that included group 2 NAs N3, N6, N7 and N9, group 1 NAs N1, N5 and N8”. In addition, the “binding to N2 NA” value in experiment [5] is “bound”.
